Results as given in US20130129725A1 (Amgen, published 2013).

T1: hu-FGFR1c-His (human, UniProt P11362 22-376)
T1 construct: also called human FGFR1c; not shown: His tag
T1 sequence: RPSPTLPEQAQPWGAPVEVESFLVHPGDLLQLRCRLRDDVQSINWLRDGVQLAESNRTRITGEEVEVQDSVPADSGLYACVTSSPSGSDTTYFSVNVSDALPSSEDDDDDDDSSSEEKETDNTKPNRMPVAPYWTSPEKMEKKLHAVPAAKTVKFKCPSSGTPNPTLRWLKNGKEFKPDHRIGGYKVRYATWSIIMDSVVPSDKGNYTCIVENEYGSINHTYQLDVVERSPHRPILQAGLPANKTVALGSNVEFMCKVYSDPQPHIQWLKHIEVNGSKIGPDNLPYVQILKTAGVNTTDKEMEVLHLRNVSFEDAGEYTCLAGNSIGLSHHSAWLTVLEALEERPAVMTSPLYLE

B1: Rm40 (peptide)
peptide: HFKCGMGLFECADP
B2: Rm26 (peptide)
peptide: EWYCGVLFNCQQ
B3: SR4 (peptide)
peptide: YQAWGYYV
B4: 2G10-Rm26 (bispecific antibody, human IgG1, lambda, N297Q)
heavy: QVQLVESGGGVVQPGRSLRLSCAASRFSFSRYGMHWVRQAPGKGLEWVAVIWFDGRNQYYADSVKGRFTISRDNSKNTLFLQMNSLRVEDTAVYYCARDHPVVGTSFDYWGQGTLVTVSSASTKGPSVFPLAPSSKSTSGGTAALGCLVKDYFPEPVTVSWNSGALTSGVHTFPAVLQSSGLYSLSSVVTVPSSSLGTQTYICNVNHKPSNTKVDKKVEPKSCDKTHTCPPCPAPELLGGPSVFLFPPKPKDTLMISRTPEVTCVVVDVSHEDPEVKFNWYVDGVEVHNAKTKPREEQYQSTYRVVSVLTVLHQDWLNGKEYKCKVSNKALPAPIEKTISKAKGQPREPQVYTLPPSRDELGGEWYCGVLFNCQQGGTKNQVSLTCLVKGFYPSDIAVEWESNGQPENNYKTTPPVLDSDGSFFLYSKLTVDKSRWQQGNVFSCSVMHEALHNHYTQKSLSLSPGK
light: QSVLTQPPSVSAAPGQKVTVSCSGSSSNIGNNYVSWYQQLPGTAPKLLIYDNNKRPSGIPDRFSGSKSGTSATLGITGLQTGDEAEYYCGTWDSSLSVVAFGGGTKLTVLGQPKANPTVTLFPPSSEELQANKATLVCLISDFYPGAVTVAWKADGSPVKAGVETTKPSKQSNNKYAASSYLSLTPEQWKSHRSYSCQVTHEGSTVEKTVAPTECS
notes: also called H2-Rm26
B5: 2G10-Rm40 (bispecific antibody, human IgG1, lambda, N297Q)
heavy: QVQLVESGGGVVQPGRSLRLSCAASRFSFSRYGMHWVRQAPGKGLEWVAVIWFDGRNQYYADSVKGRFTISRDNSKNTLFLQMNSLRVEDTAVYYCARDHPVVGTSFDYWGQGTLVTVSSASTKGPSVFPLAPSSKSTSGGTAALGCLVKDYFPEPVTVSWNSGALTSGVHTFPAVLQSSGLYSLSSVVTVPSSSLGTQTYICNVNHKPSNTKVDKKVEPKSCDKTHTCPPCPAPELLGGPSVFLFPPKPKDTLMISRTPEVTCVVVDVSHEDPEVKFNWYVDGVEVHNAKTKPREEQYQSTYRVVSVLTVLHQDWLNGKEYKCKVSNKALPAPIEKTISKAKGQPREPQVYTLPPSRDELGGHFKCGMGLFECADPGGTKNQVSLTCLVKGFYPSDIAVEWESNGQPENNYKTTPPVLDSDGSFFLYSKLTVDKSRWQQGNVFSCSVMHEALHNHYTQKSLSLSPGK
light: QSVLTQPPSVSAAPGQKVTVSCSGSSSNIGNNYVSWYQQLPGTAPKLLIYDNNKRPSGIPDRFSGSKSGTSATLGITGLQTGDEAEYYCGTWDSSLSVVAFGGGTKLTVLGQPKANPTVTLFPPSSEELQANKATLVCLISDFYPGAVTVAWKADGSPVKAGVETTKPSKQSNNKYAASSYLSLTPEQWKSHRSYSCQVTHEGSTVEKTVAPTECS
notes: also called H2-Rm40
B6: 1A2-Rm26 (bispecific antibody, human IgG1, kappa, N297Q, V domains shown)
VH: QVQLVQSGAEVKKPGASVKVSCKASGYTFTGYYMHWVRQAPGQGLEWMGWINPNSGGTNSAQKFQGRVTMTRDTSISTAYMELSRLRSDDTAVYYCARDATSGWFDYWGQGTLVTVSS
VL: DIVMTQTPLSSPVTLGQPASISCRSSQSLVYSDGNTYLSWLQQRPGQPPRLLIYKISNRFSGVPDRFSGSGAGTDFTLKISRVEADDVGIYYCMQAIEFPWTFGQGTQVEIKR
notes: also called H1-Rm26

These binders were tested against T1, hu-FGFR1c-His (assay: ELISA (Example 10), antigen on plate (FIG. 13)).

Binding result, binds:
B1
B2
B3

What follows are binders tested against T1, hu-FGFR1c-His (assay: ELISA (Example 10), antigen on plate, anti-hu-Fc-HRP detection (FIG. 13)).
Experimental: Biotin-hu-β-Klotho-His, biotin-mu-βKlotho-His, hu-FGFR1c-His, and mu-FGFR1c-Fc were expressed and purified. Anti-Fc-HRP was purchased from Thermo Fisher Scientific (Rockford, Ill.). Neutravidin 96 well plates (Thermo Fisher Scientific; Rockford, Ill.) were coated with 2 μg/ml biotin-hu-β-Klotho-His or biotin-mu-β-Klotho-His in PBS (Invitrogen; Carlsbad, Calif.). Maxisorp 96 well plates (Thermo Fisher Scientific; Rockford, Ill.) were coated with 2 μg/ml hu-FGFR1c-His or mu-FGFR1c-Fc in PBS. Plates were then incubated at 4° C. overnight. Plates were blocked in 2% milk-PBS at room temperature for 1 hour. Each well was then incubated 1 hour with samples diluted in 2% milk-PBS. Plates were washed 3 times with 300 μl PBS/0.1% Tween20 (Invitrogen; Carlsbad, Calif. and Sigma-Aldrich; St. Louis, Mo.). Anti-hu-Fc-HRP was diluted 1:10000 in 2% milk-PBS and added to each well. Plates were again washed 3 times with 300 μl PBS/0.1% Tween20. Lumiglo reagent (KPL; Gaithersburg, Md.) was added and luminescence was measured (Perkin Elmer; Waltham, Mass.).

Binding result, binds:
B4
B5
B6
